Test results as given in article PMC2836565.

T1: Vts1 (Saccharomyces cerevisiae, UniProt Q08831 1-523)
T1 sequence: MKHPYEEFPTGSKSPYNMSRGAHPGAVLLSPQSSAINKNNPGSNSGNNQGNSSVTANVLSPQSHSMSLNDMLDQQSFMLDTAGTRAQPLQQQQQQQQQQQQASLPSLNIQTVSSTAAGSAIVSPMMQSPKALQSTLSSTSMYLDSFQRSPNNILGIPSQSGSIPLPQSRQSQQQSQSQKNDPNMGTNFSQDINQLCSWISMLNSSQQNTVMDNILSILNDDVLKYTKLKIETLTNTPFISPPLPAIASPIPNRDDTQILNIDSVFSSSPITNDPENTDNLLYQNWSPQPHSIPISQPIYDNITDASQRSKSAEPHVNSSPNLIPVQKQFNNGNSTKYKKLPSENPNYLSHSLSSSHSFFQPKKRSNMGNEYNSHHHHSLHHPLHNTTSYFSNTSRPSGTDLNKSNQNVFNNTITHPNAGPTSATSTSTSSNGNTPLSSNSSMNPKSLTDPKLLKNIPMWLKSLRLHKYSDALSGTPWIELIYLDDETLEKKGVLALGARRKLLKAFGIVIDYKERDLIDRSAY

T2: Vts1-A498Q (Saccharomyces cerevisiae, UniProt Q08831 1-523, A498Q)
T2 sequence: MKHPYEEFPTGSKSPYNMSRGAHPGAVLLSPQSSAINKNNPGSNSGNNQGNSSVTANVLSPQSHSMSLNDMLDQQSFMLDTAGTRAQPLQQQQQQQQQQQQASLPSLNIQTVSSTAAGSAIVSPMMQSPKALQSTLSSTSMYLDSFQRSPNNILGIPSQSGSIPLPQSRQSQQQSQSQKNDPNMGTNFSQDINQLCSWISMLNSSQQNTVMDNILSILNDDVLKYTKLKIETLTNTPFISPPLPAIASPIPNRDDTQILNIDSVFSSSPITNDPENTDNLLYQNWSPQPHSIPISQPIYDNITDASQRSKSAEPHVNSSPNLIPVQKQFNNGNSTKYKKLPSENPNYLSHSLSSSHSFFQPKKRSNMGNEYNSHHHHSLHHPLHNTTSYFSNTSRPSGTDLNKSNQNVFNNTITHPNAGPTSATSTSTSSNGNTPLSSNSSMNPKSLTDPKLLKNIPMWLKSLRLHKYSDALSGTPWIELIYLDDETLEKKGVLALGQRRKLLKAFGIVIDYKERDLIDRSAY

B1: dsDNA 50-bp (dsDNA)
DNA 1: GAAAACATTATTAATGGCGTCGAGCTAGGCACAAGGCGAACTGCTAACGG
DNA 2: CCGTTAGCAGTTCGCCTTGTGCCTAGCTCGACGCCATTAATAATGTTTTC

What was measured:
Vts1 [1] = biological target: T1, Vts1; assay: competition
Vts1 [2] = biological target: T1, Vts1; assay: EMSA
Vts1-A498Q = biological target: T2, Vts1-A498Q; assay: EMSA

Binder | binding result (Vts1 [1]) | binding result (Vts1 [2]) | binding result (Vts1-A498Q)
B1 | binds |  | 
GCUCGAGGCUCUGGCAGCCUCGAGC (structured_RNA) [SRE-RNA] |  | binds | no binding
